Literature values, collected in patent publication US11884941B2, “Non-canonical lipoproteins with programmable assembly and architecture and method of making non-canonical lipoproteins” (SYRACUSE UNIVERSITY, priority 2020, dated 2024).
Where two headings read alike, the source gives them in different places.

What was measured:
[1] = molecular target: T1, yeast NMT (Saccharomyces cerevisiae, UniProt P14743)
T1 sequence (P14743 1-455): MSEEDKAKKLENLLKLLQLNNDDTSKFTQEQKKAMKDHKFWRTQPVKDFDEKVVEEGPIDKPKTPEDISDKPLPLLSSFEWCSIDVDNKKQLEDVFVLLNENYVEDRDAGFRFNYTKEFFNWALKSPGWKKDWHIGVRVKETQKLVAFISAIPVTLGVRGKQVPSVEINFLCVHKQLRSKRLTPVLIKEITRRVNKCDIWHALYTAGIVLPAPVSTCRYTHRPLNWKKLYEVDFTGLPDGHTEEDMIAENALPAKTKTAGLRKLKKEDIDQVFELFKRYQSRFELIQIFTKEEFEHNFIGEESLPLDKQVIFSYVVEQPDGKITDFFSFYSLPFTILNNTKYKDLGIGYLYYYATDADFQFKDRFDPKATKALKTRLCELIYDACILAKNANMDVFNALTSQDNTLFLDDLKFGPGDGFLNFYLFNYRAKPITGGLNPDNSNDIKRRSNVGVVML

[2] = tested on: Pseudomonas acyl-CoA synthetase; conditions: in vitro

In the case of `[N-]=[N+]=NCCCCCCCCCCCC(=O)O` [ADA, 12-azidododecanoic acid], the “Vm relative to Vm (M)” value ([1]; transfer to N-terminal glycine in ternary complex) is given as 1.5 ×Vm (M).

In the case of `CC(C)(COP(=O)(O)OP(=O)(O)OCC1OC(n2cnc3c(N)ncnc32)C(O)C1OP(=O)(O)O)C(O)C(=O)NCCC(=O)NCCSC(=O)CCCCCCCCCCCN=[N+]=[N-]` (stereo not drawn) [ADA-CoA], the “amount of acyl-CoA produced compared to M-CoA” value [2] is given as 1.5-2 times.

For “GARASVLS [octapeptide NMT substrate derived from Pr55gag polypeptide precursor of human immunodeficiency virus I (Devadas et al.)]”, the “fold reduction of peptide affinity toward NMT:ADA-CoA complex compared to natural substrate (M-CoA)” value [1] is listed as 7 fold, the Km ([1]; NMT with ADA-CoA bound, read-out: Km for the peptide, NMT:ADA-CoA) is listed as 66 µM and the Km ([1]; NMT with Myr-CoA bound, read-out: Km for the peptide, NMT:Myr-CoA complex) is listed as 9 µM.

In the case of GLYASKLFSNL (substrate for transferase), the Km ([1]; read-out: Km of recognition sequence for yeast NMT) is given as about 0.08 µM.
